Experimental data as given in PMC4297576.

Tests used:
[1] = molecular target: Cdk2/cyclin A complex (T160-phosphorylated full-length human Cdk2 and truncated human cyclin A2, residues 173-432) (human) (UniProt P24941)
[2] = molecular target: Cdk2/cyclin A complex (T160-phosphorylated full-length human Cdk2 and truncated human cyclin A2, residues 173-432) (human) (UniProt P24941); assay: ITC

Chain of peptide corresponding to sub-domain D1C (p21 residues 139-160) (P38936 139-160): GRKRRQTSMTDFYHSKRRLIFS

| IC50 of inhibition of Cdk2/cyclin A kinase activity, substrate Histone H1 [1] | IC50 of inhibition of Cdk2/cyclin A kinase activity, substrate Rb-C [1] | Kd [2] | Substance |
| --- | --- | --- | --- |
| 55.4 nM | 22.8 nM | – | p21-KIDC-Y77E (from UniProt P38936 25-164) (domain or fragment) |
| 23.4 nM | 19.9 nM | – | p21-FL-Y77E (from UniProt P38936 1-164) (natural protein) |
| – | – | 208 nM | peptide corresponding to sub-domain D1C (p21 residues 139-160) (from UniProt P38936 139-160) |
| 68.1 nM | 46.6 nM | – | p21-KIDN-Y77E (from UniProt P38936 9-84) (domain or fragment) |
